# Test: soluble on expression in E. coli; label from the status in PepcDB or PDB records
row,Sequence,soluble on expression in E. coli
1,MADSDLPTKGRQRGVRAVELNVAARLENLALLRTLVGAIGTFEDLDFDAVADLRLAVDEVCTRLIRSALPDATLRLVVDPRKDEVVVEASAACDTHDVVAPGSFSWHVLTALADDVQTFHDGRQPDVAGSVFGITLTARRAASSR,not soluble
2,ALQAGRLGSTVFVANLDYKVGWKKLKEVFSMAGVVVRADILEDKDGKSRGIGTVTFEQSIEAVQAISMFNGQLLFDRPMHVKMDERALPKGDFFPPERPQQ,soluble
3,MFEAEIDCNIPGALWCGELYVLEQDVVFPDLLRIDRFCTSKSKKMFRFDVYPGSDFPTVDLELTYKFNHNCSADGETYCVKPKWSKKVNGRVGQSVGFDIDARPHGKPSRCKPPFYF,not soluble
4,LVPRGSHMTNDTSGVLTIATTHTQARYSLPEVIKAFRELFPEVRLELIQGTPQEIATLLQNGEADIGIASERLSNDPQLVAFPWFRWHHSLLVPHDHPLTQISPLTLESIAKWPLITYRQGITGRSRIDDAFARKGLLADIVLSAQDSDVIKTYVALGLGIGLVAEQSSGEQEEENLIRLDTRHLFDANTVWLGLKRGQLQRNYVWRFLELCNAGLSVEDIKRQVMES,soluble
5,MAHHHHHHMEEGDQATDAAETSALAANTLTREEQPDERSKNEVTLLEIKRKVQNEKEAQKDDNKQRKFKIINYTSKDSLVSKVEKEFFLFFCFLCGFNCLISETDVADLPRRKTDGSIIFPFKKIVHKKYYKTKKECILIRRREDALEVQFRILCKECGVPIGYVNSLADDNAYVYYYDYSFVRSQTKSRLFKDVSL,not soluble
6,MGSDKIHHHHHHMATANKNLKATWVATVTNLDWPSVSSVAITDEAARVSKQKEELTGILDEIVAMKMNAVIFQVVPCADAFYASDLLPWSKYLTGTLGKNPGFDPLAYAIEQAHARNIELHAWVNPYRVSMNASDATIEELNNSSSDSPASVFKTHPEWTGTAANRFVLNPGIPEVQTWVSNIVEEIVTKYDVDAIQFDDYFYYETASSLLQDDATYQKYNTNFTTKADWRRNNTYSLVDTCHKKIAAVKANVLFGVSPAGVWRNKSDDPLGSDTQAGASNYDFAYADTRKWVIDGIIDYIAPQVYWPFAREVARYDVITQWWADTVSGTGTALYIGMALYKVGTASETEPDWTVEGGVPEITRQLDLNDSLTEVSGCMLFRHMFLRASQTQQVVDYLKLRWADV,not soluble
7,MAHHHHHHMMRQNLTSDSLITDTLRKAGVPCDVVGIVETVAGACRAIAAGLRNDGVTAAKSKNNFGDDVLSVDVMADKIISEALNSCQHVASYVSEESPSLASTAHSGKATYSVSYDPLDGSSIITSNFTVGSIFAVWPGNTPIGLTVRDMAASVVAVYGPRVVLFVGQEELGVAEFFCGADGEWKLAKRVWAGVCTPRTATVTAAGRGVKLKATVFSPGNLRAVRHLPWYKQLITMYMQEGATLRYTGGMVPDVCQIIVKGDGIYMTPASPQHKMKLRLLFEAAPMAFLIHCAGGRSTTGLTNMMNVRVVSMEQTTPIALGCARDVERYERMCRGCSKL,soluble
8,MKKLFNQVLVAAGVLALLAGCASEEENVIMAPLPIVKSEFTPKTLWSASVGDGVGHYFSKLAPDYAYDKVFVASRDGVVKALDPQNGKVIWTTDLEIEGSARLSGGITAAFGKLFIGSENGVVNALDAETGEPLWASAIEGEVLAAPAADNNIVIVNTSRGALIALNQEDGAQKWTISTEVPNLTLRGDSRPTAVAGGVFWGTPSGRLAAAIAERGQLIWQQPVGQPKGATEIDRLVDVDASPLVIGGTLFTVGFNGQLIAIDLRSGQPIWKRNYSSATDMATDGSRLYLVTDKDHLVAVDTRSGTELWSNTQLEHRLLTAPKMIDDYLVVGDAEGYLHWIDRNSGEFIAQQLVNDSGFAVGPLALNDGYVIVTRNGQIKKLTIQQ,not soluble
9,MGSDKIHHHHHHMAKIGRNEPCPCGSGKKYKRCCMSGVGKQQADFVDSIEQMLAMNPDLSMDELNIIAEHQSNKINTTPHKDFCGLAPGQVNNWLYAPFPELEGITINTPSDLSTSPVMRYLKLMLETALANGGQIKATAKGNLPAALVKEASAFLPEFAVAPFERAISISEFAGANEDKFNALHYCRVLAKIAGIFKLKSNKFHVSAWAKHQYQRAGLESFFPIMLETAVYKYNWGYFDLWENEIPLQHFWLFMLWRLQHHKSHERLVDEMIQAFPDLLNELYEEEYMSDRDKLAVLIESRFIHRFLQFFGFVMVDPRRVIDGKRVAAQVTCLRSMHETFNFRIE,not soluble
10,MKEGKWFASANNQNKFLDPRERGNILNYLKVCLLLARAVRRMHAAGLCHSDLSYKNVLIDPEQGHACIIDVDGLVVPGKFPPDVVGTPDFIAPEVVKTSHLLKEDPQRILPNITTDRHALSVLIYMYLFYRHPLRGGKIHDMDDEVRDESLAMGERALFIEHPTDRSNAVKLNQVKPSSLPWADPQKVPYTIMGPYLTQLFEKAFIDGLHDPSKRPTADEWETALVKTVDLIQPCQNTACEQKWYVFSGKTKPVCPYCLEHHHHHH,not soluble
11,MLPDSSVRLNKYISESGICSRREADRYIEQGNVFLNGKRATIGDQVKPGDVVKVNGQLIEPREAEDLVLIALNKPVGIVSTTEDGERDNIVDFVNHSKRVFPIGRLDKDSQGLIFLTNHGDLVNKILRAGNDHEKEYLVTVDKPITEEFIRGMSAGVPILGTVTKKCKVKKEAPFVFRITLVQGLNRQIRRMCEHFGYEVKKLERTRIMNVSLSGIPLGEWRDLTDDELIDLFKLIENSSSEVKPKAKAKPKTAGIKRPVVKMEKTAEKGGRPASNGKRFTSPGRKKKGRLEHHHHHH,soluble
12,MGSSHHHHHHGGTGENLYFQGGSGTNVPLTQRITAFNNYVGNASNRDRVMSVVQFGAMALAAPAAAAGCPELSAHLSTILHGAAHYRTVTRFSQWLVVAPALTPSGIKSAIASHPNLLVGICKTISTAFFTVFLIGEELVLASKCNMLDPVLGKRFNRIRFVFLFWSNIARLVMSYLLLKSSKYDAVKDNQNEEKAKDHRRKVLGVADGVLQSMFCYTLLKSSAPAGPKYLSAALRSGKAVDIITSLAPPLLVVPSTPQGMLGLAASVPGFMMSVL,not soluble
13,MGSSHHHHHHSSGLVPRGSAKSFSSQKAYKIVLAGDAAVGKSSFLMRLCKNEFRENISATLGVDFQMKTLIVDGERTVLQLWDTAGQERFRSIAKSYFRKADGVLLLYDVTCEKSFLNIREWVDMIEDAAHETVPIMLVGNKADIRDTAATEGQKCVPGHFGEKLAMTYGALFCETSAKDGSNIVEAVLHLAREVKKRT,soluble
14,MGSDKIHHHHHHMSDLSQRIAELSPEKLKLLVQRLNNKQGEILLRSPIVPQSRELNSFPLSSAQQRLWFIDQLQPGNSAYNISVPMRLGGWLNVAALEQSFKEVVKRHEVLRTTFTVVDGQPLQVIASSLSFTLPVVDLQKLPQNQREAEVLRLASEEAQQPFDLAQGPLLRATLLQLAAAEYALLLTMHHIIADGWAIGVLIREIADLYKAFSVGKPSPLSELSIQYVDFAVWQQQWLQGQLETQLAYWQQQLGSIPVVELPSDFPRSTTQTFSGAREALVLPKTLCDRLKTLNQRQGITLFMVLLAAFGALLNWYTDREDIVVGTDIANRNQAETKALIGFFANQLVLRTNLSKNPTFLELLERVREMTLEAYAHQDLPFDKLVDALNPKRELNRTPLFQVKLVLENTQTPSLELPGLTISSLKIENKTVQFDLLLELNETEQGLFGIWEYSTDLFERDSIVRLSKNFATLLAEVATHPEAKLSELKAVLNQVDKQQHLAKEQVYQNTIQQKLMNVKRRANSRQSTSGNTNHDKN,not soluble
15,MNYNNKILVSESGLSQKHLIHGDEELFQHELKTIFARNWLFLTHDSLIPAPGDYVTAKMGIDEVIVSRQNDGSIRAFLNVCRHRGKTLVSVEAGNAKGFVCSYHGWGFGSNGELQSVPFEKDLYGESLNKKCLGLKEVARVESFHGFIYGCFDQEAPPLMDYLGDAAWYLEPMFKHSGGLELVGPPGKVVIKANWKAPAENFVGDAYHVGWTHASSLRSGESIFSSLAGNAALPPEGAGLQMTSKYGSGMGVLWDGYSGVHSADLVPELMAFGGAKQERLNKEIGDVRARIYRSHLNCTVFPNNSMLTCSGVFKVWNPIDANTTEVWTYAIVEKDMPEDLKRRLADSVQRTVGPAGFWESDDNDNMETASQNGKKYQSRDSDLLSNLGFGEDVYGDAVYPGVVGKSAIGETSYRGFYRAYQAHVSSSNWAEFEHASSTWHTELTKTTDR,soluble
16,MNHKALFSGKLVFIGFGSITRATLGLLGNVQRFDVSRIVVIAPGIKGSEPFVKSGVTFIDQALTSDTMESVLGSIVGQGDFIVNLSVNVCSADVIRFAYAHDALYLDTCIEPWGNTYNSPSLTASQRSNYALRDQLRTLGAELGPGPTAVVAHGANPGLISHFLKCALSALAEQLSVAVPRHQGGIDWGNLSMKLGVKVIHIAERDTQRSTRIKSDGEFVNTWSVDGFVSEAGQPAELGWGSHEKNWPPFARHHQFGSDNAIYLDRPGACVSVKTWTPNGGPCNAMLITHNEAISIPELLTVRNEGALSYRPTVHYAYHPCDDALLSINEYTGRGWHAQDRQRIMLDEITPGGIDALGVLIMGHKLNAYWYGSILNIDEARRLAPFNNATSLQVAAGVYSGIIWAIENPDRGIVEPEQMDHQRVMEIALPFLGKFGGVLTDWTPLKTGNALFRKPDADACPWQFEHFTAALEHHHHHH,not soluble
17,AYTTFSQTKNDQLKEPMFFGQPVNVARYDQQKYDIFEKLIEKQLSFFWRPEEVDVSRDRIDYQALPEHEKHIFISNLKYQTLLDSIQGRSPNVALLPLISIPELETWVETWAFSETIHSRSFTHIIRNIVNDPSVVFDDIVTNEQIQKRAEGISSYYDELIEMTSYWHLLGEGTHTVNGKTVTVSLRELKKKLYLCLMSVNALEAIRAYVSFACSFAFAERELMEGNAKIIRLIARDEALHLTGTQHMLNLLRSGADDPEMAEIAEECKQECYDLFVQAAQQEKDWADYLFRDGSMIGLNKDILCQYVEYITNIRMQAVGLDLPFQTRSNPIPWINTWLVSDNVQVAPQEVEVSSYLVGQIDSEVDTDDLSNFQL,soluble
18,MSYQNLVSEAGLTQKLLIHGDKELFQHELKTIFARNWLFLTHDSLIPSPGDYVKAKMGVDEVIVSRQNDGSVRAFLNVCRHRGKTLVHAEAGNAKGFVCGYHGWGYGSNGELQSVPFEKELYGDAIKKKCLGLKEVPRIESFHGFIYGCFDAEAPPLIDYLGDAAWYLEPTFKYSGGLELVGPPGKVVVKANWKSFAENFVGDGYHVGWTHAAALRAGQSVFSSIAGNAKLPPEGAGLQMTSKYGSGMGVFWGYYSGNFSADMIPDLMAFGAAKQEKLAKEIGDVRARIYRSFLNGTIFPNNSFLTGSAAFRVWNPIDENTTEVWTYAFVEKDMPEDLKRRVADAVQRSIGPAGFWESDDNENMETMSQNGKKYQSSNIDQIASLGFGKDVYGDECYPGVVGKSAIGETSYRGFYRAYQAHISSSNWAEFENASRNWHIEHTKTTDR,soluble
19,MPLPFSIISTTSQDVLEDADSDEEAETFYVNWITEKNHSFPQSMVLELEEESLVSSVKLIVHKDYPPSSLTVSLGIPSNHFRNSRGKSYNADYSVRQELSFRDDFHVEYGQKHPKATVFFNSPAKFVRISVHGFSDSDVNHHRQVSILSVIISGAGEILPFDSHLKDEPKQTEMSYIELDKGILLPLKSKPKMRETKTIVGLYDTDSEDEEILFSKEMLNRLRKREAVMKNPQLPTTSAITETIAIDTSCEKSAPVSSSSSSKQQSSVSPPLSDRSKKQILDEILGIDEKGNKGKPRKEVYFGSRMSEFNNMLRLLERKREESIWEEKYAQASAIDESVKDLKSREAGLRELIIEREDALKGKDLIAAQR,not soluble
20,MRNIQPRRLVTASGQPIVIRTAWPEDAERIVAFVKAVTAEALYLLTTEAEVTVTEDQQRQWLQKMADDPGKLALLAEHDGEMIGFLDFHNGNKRFRHEREKRLSRPGDRHGVACSAP,not soluble

# From the DeepSol protein solubility set
